# Laboratory results: patent US20150045540A1 (published 2015)
# T1: Placenta Growth Factor (PlGF), human (human, UniProt P49763 21-149)
# T1 chain: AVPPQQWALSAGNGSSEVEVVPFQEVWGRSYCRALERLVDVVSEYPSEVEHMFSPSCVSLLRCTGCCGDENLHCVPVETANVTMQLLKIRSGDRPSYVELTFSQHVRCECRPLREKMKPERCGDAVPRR
# B1: HC 3/SLC 8 (antibody)
# chain 1: GQGTLVTVSSASTQPVLHQPPAMSSALGTTIRLTCTLRNDHDIGVYSVYWYQQRPGHPPRFLLRYFSQSDKSQGPQVPPRFSGSKDVARNRGYLSISELQPEDEAMYYCAMGARSRCWPRGFQSKHNSVTHVFGSGTQLTVLSQPKATPSVTLFPPSSEELQANKATLVCLMNDFYPGILTVTWKADGTPITQGVEMTTPSKQSNNKYAASSYLSLTPEQWRSRRSYSCQVMHEGSTVEKTVAPAECS
# chain 2: MSWAPVLLMLFVYCTGCGPQPVLHQPPAMSSALGTTIRLTCTLRNDHDIGVYSVYWYQQRPGHPPRFLLRYFSQSDKSQGPQVPPRFSGSKDVARNRGYLSISVTHVFGSGTQLTVLSQPKATPSQVQLVQ
# B2: HC 3/SLC 4 (antibody)
# chain 1: B1 chain 1
# chain 2: MSWAPVLLMLFVYCTGCGPQPVLHQPPAMSSALGTTIRLTCTLRNDHDIGVYSVYWYQQRPGHPPRFLLRYFSQSDKSQGPQVPPRFSGSKDVARNRGYLSISVTHVFGSGTQLTVLSQPKQVQLVQ
# B3: HC 7/SLC 8 (antibody)
# chain 1: GQGTLVTVSSASTKGPSQPVLHQPPAMSSALGTTIRLTCTLRNDHDIGVYSVYWYQQRPGHPPRFLLRYFSQSDKSQGPQVPPRFSGSKDVARNRGYLSISELQPEDEAMYYCAMGARSRCWPRGFQSKHNSVTHVFGSGTQLTVLSQPKATPSVTLFPPSSEELQANKATLVCLMNDFYPGILTVTWKADGTPITQGVEMTTPSKQSNNKYAASSYLSLTPEQWRSRRSYSCQVMHEGSTVEKTVAPAECS
# chain 2: B1 chain 2
# B4: HC 3/SLC 5 (antibody)
# chain 1: B1 chain 1
# chain 2: MSWAPVLLMLFVYCTGCGPQPVLHQPPAMSSALGTTIRLTCTLRNDHDIGVYSVYWYQQRPGHPPRFLLRYFSQSDKSQGPQVPPRFSGSKDVARNRGYLSISVTHVFGSGTQLTVLSQPKAQVQLVQ
# B5: HC 2/SLC 6 (antibody)
# chain 1: GQGTLVTVSSASQPVLHQPPAMSSALGTTIRLTCTLRNDHDIGVYSVYWYQQRPGHPPRFLLRYFSQSDKSQGPQVPPRFSGSKDVARNRGYLSISELQPEDEAMYYCAMGARSRCWPRGFQSKHNSVTHVFGSGTQLTVLSQPKATPSVTLFPPSSEELQANKATLVCLMNDFYPGILTVTWKADGTPITQGVEMTTPSKQSNNKYAASSYLSLTPEQWRSRRSYSCQVMHEGSTVEKTVAPAECS
# chain 2: MSWAPVLLMLFVYCTGCGPQPVLHQPPAMSSALGTTIRLTCTLRNDHDIGVYSVYWYQQRPGHPPRFLLRYFSQSDKSQGPQVPPRFSGSKDVARNRGYLSISVTHVFGSGTQLTVLSQPKATQVQLVQ
# B6: HC 10/SLC 6 (antibody)
# chain 1: GQGTLVTVSSASTKGPSVFPQPVLHQPPAMSSALGTTIRLTCTLRNDHDIGVYSVYWYQQRPGHPPRFLLRYFSQSDKSQGPQVPPRFSGSKDVARNRGYLSISELQPEDEAMYYCAMGARSRCWPRGFQSKHNSVTHVFGSGTQLTVLSQPKATPSVTLFPPSSEELQANKATLVCLMNDFYPGILTVTWKADGTPITQGVEMTTPSKQSNNKYAASSYLSLTPEQWRSRRSYSCQVMHEGSTVEKTVAPAECS
# chain 2: B5 chain 2
# B7: HC 6/SLC 4 (antibody)
# chain 1: GQGTLVTVSSASTKGPQPVLHQPPAMSSALGTTIRLTCTLRNDHDIGVYSVYWYQQRPGHPPRFLLRYFSQSDKSQGPQVPPRFSGSKDVARNRGYLSISELQPEDEAMYYCAMGARSRCWPRGFQSKHNSVTHVFGSGTQLTVLSQPKATPSVTLFPPSSEELQANKATLVCLMNDFYPGILTVTWKADGTPITQGVEMTTPSKQSNNKYAASSYLSLTPEQWRSRRSYSCQVMHEGSTVEKTVAPAECS
# chain 2: B2 chain 2
# B8: HC 6/SLC 9 (antibody)
# chain 1: B7 chain 1
# chain 2: MSWAPVLLMLFVYCTGCGPQPVLHQPPAMSSALGTTIRLTCTLRNDHDIGVYSVYWYQQRPGHPPRFLLRYFSQSDKSQGPQVPPRFSGSKDVARNRGYLSISVTHVFGSGTQLTVLSQPKATPSVQVQLVQ
# B9: HC 10/SLC 4 (antibody)
# chain 1: B6 chain 1
# chain 2: B2 chain 2
# B10: HC 6/SLC 2 (antibody)
# chain 1: B7 chain 1
# chain 2: MSWAPVLLMLFVYCTGCGPQPVLHQPPAMSSALGTTIRLTCTLRNDHDIGVYSVYWYQQRPGHPPRFLLRYFSQSDKSQGPQVPPRFSGSKDVARNRGYLSISVTHVFGSGTQLTVLSQQVQLVQ
# B11: HC 2/SLC 4 (antibody)
# chain 1: B5 chain 1
# chain 2: B2 chain 2
# B12: HC 4/SLC 5 (antibody)
# chain 1: GQGTLVTVSSASTKQPVLHQPPAMSSALGTTIRLTCTLRNDHDIGVYSVYWYQQRPGHPPRFLLRYFSQSDKSQGPQVPPRFSGSKDVARNRGYLSISELQPEDEAMYYCAMGARSRCWPRGFQSKHNSVTHVFGSGTQLTVLSQPKATPSVTLFPPSSEELQANKATLVCLMNDFYPGILTVTWKADGTPITQGVEMTTPSKQSNNKYAASSYLSLTPEQWRSRRSYSCQVMHEGSTVEKTVAPAECS
# chain 2: B4 chain 2
# B13: HC 5/SLC 9 (antibody)
# chain 1: GQGTLVTVSSASTKGQPVLHQPPAMSSALGTTIRLTCTLRNDHDIGVYSVYWYQQRPGHPPRFLLRYFSQSDKSQGPQVPPRFSGSKDVARNRGYLSISELQPEDEAMYYCAMGARSRCWPRGFQSKHNSVTHVFGSGTQLTVLSQPKATPSVTLFPPSSEELQANKATLVCLMNDFYPGILTVTWKADGTPITQGVEMTTPSKQSNNKYAASSYLSLTPEQWRSRRSYSCQVMHEGSTVEKTVAPAECS
# chain 2: B8 chain 2
# B14: HC 5/SLC 3 (antibody)
# chain 1: B13 chain 1
# chain 2: MSWAPVLLMLFVYCTGCGPQPVLHQPPAMSSALGTTIRLTCTLRNDHDIGVYSVYWYQQRPGHPPRFLLRYFSQSDKSQGPQVPPRFSGSKDVARNRGYLSISVTHVFGSGTQLTVLSQPQVQLVQ
# Target: Hepatocyte Growth Factor (HGF), human (human, UniProt P14210 32-728)
# Experiment: ELISA
# Chain of Hepatocyte Growth Factor (HGF), human (P14210 32-728): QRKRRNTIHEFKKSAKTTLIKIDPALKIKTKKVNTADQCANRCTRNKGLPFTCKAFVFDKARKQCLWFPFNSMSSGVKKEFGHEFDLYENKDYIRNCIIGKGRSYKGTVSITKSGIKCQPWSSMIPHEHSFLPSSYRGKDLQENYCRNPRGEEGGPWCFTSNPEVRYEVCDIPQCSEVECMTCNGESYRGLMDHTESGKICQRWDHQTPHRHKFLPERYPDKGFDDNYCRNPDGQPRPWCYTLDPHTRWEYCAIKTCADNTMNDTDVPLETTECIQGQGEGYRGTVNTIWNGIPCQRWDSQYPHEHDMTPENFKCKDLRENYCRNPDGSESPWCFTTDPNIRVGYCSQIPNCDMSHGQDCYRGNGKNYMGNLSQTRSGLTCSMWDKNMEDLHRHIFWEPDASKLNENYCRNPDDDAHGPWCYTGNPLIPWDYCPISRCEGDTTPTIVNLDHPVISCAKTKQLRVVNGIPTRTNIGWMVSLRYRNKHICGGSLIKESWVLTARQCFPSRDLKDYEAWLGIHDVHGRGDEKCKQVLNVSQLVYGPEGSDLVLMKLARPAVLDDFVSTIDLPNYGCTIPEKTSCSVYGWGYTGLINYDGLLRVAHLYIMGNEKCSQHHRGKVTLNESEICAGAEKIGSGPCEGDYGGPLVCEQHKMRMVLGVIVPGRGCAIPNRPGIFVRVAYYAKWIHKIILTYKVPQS
row,EC50 [nM],Binder
1,0.056,B1
2,0.067,B2
3,0.056,B3
4,0.054,B4
5,0.056,B5
6,0.061,B6
7,0.06,B7
8,0.047,B8
9,0.07,B9
10,0.06,B10
11,0.058,B11
12,0.059,B12
13,0.052,B13
14,0.064,B14

# Target: T1, Placenta Growth Factor (PlGF), human
# Experiment: ELISA
row,EC50 [nM],Binder
1,0.157,B1
2,0.22,B2
3,0.095,B3
4,0.249,B4
5,0.161,B5
6,0.089,B6
7,0.191,B7
8,0.053,B8
9,0.153,B9
10,0.229,B10
11,0.175,B11
12,0.282,B12
13,0.066,B13
14,0.181,B14
